The target in this experiment is T1, TPOR/4Rα hybrid receptor (fusion of the hTPOR extracellular domain and the intracellular 4Rα domain from … (human, UniProt P40238 26-491; P24394 257-825, limits assumed).
T1 sequence (looked up): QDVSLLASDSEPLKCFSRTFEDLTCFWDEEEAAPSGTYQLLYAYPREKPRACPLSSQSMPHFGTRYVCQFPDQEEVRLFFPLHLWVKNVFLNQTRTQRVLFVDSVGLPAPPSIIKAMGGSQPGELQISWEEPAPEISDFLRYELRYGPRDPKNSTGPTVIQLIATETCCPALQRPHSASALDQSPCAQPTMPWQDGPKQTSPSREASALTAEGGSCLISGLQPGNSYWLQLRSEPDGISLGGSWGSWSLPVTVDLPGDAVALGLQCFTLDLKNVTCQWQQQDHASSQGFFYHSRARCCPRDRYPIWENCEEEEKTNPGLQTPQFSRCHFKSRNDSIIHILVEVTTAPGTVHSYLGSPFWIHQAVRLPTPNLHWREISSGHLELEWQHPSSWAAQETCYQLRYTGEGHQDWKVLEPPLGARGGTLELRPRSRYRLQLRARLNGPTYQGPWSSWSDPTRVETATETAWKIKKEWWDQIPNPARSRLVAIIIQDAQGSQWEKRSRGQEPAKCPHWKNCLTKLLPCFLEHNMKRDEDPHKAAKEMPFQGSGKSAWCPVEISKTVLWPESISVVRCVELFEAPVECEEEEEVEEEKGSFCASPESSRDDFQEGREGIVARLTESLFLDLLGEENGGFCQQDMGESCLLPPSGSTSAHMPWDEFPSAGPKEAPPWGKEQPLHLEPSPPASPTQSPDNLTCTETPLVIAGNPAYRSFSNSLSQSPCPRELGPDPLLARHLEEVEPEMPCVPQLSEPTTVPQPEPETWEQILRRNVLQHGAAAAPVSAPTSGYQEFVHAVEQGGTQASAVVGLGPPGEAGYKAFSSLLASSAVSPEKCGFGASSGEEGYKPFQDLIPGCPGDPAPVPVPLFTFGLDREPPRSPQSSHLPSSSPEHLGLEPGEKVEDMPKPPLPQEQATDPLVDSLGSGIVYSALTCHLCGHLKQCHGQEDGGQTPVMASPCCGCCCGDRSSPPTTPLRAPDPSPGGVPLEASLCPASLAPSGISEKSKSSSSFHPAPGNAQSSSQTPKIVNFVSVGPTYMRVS
Kind of experiment: cell-based or functional assay.

Ends that are not written are not given here.

The source of these data is patent US20090156476A1 (NASCACELL TECHNOLOGIES, published 2009).

B1: dimeric SE-AG-TP-040 (DSS-crosslinked dimer) (designed binder)
chain: GCVRLHESCLGQQVPCCDPAATCGGTALAIEGPTLRQWLAARACKGS
modifications: cysteine pairing not given here; also: dimer crosslinked by DSS, site of crosslink not given here
As to B1, the “Agonist EC50[nM] (Ba/F3 luciferase reporter assay)” value (shortened to “Agonist EC50[nM]”) is approximately 2 nM.

B2: dimeric SE-AG-TP-050 (DSS-crosslinked dimer) (designed binder)
chain: GCVRLHESCLGQQVPCCDPAATCGGTCLAIEGPTLRQWLCARACKGS
modifications: cysteine pairing not given here; also: dimer crosslinked by DSS, site of crosslink not given here
B2: the “Agonist EC50[nM]” value worked out at 2.5 nM.

B3: dimeric SE-ET-TP-030 (DSS-crosslinked dimer) (designed binder)
chain: GCIEGPTLRQWLAACKQDSDCLAGCVCGPNGFCGS
modifications: cysteine pairing not given here; also: DSS-crosslinked dimer, crosslink site not given here
As for B3, the “Agonist EC50[nM]” value was 2.5 nM.

B4: dimeric SE-ET-TP-020 (DSS-crosslinked dimer) (designed binder)
chain: GCIEGPTLRQWLAARACKQDSDCLAGCVCGPNGFCGS
modifications: cysteine pairing not given here; also: DSS-crosslinked dimer, crosslink site not given here
In the case of B4, the “Agonist EC50[nM]” value came to 1.4 nM.
